Reference: patent US20040229298A1
Where “and” joins values, the source holds several entries; their conditions need not be identical. Equal values may be shown once. Ends that are not written are not given here.

Key:
[1] = biological target: GST-SAST2 PDZ domain 1 (human); experiment: G assay ELISA, E6 PL peptide titrated on constant GST-PDZ
[2] = biological target: GST-AF6 PDZ domain 1 (human); experiment: G assay ELISA, 10 uM biotin peptide on anti-GST-captured GST-PDZ
[3] = biological target: GST-APXL1 PDZ domain 1 (human); experiment: as above
[4] = biological target: GST-CASK PDZ domain 1 (human); experiment: as above
[5] = biological target: GST-EBP50 PDZ domain 1, clone #311.1 (human); experiment: as above
[6] = biological target: GST-ERBIN PDZ domain 1 (human); experiment: as above
[7] = biological target: GST-GTPase PDZ domain 1 (human); experiment: as above
[8] = biological target: GST-INADL PDZ domain 8 (human); experiment: as above
[9] = biological target: GST-KIAA0147 PDZ domain 4 (human); experiment: as above
[10] = biological target: GST-KIAA0316 PDZ domain 1 (human); experiment: as above
[11] = biological target: GST-KIAA0545 PDZ domain 1 (human); experiment: as above
[12] = biological target: GST-KIAA1634 PDZ domain 5 (human); experiment: as above
[13] = biological target: GST-KIAA1719 PDZ domain 3 (human); experiment: as above
[14] = biological target: GST-LIM-RIL PDZ domain 1 (human); experiment: as above
[15] = biological target: GST-MUPP1 PDZ domain 13 (human); experiment: as above
[16] = biological target: GST-NeDLG PDZ domain 2 (human); experiment: as above
[17] = biological target: GST-Numb BP PDZ domain 1 (human); experiment: as above
[18] = biological target: GST-PAR3 PDZ domain 3, clone #182.1 (human); experiment: as above
[19] = biological target: GST-RGS12 PDZ domain 1 (human); experiment: as above
[20] = biological target: GST-SITAC-18 PDZ domain 1 (human); experiment: as above
[21] = biological target: GST-Serine Protease PDZ domain 1 (human); experiment: as above
[22] = biological target: GST-Shank 1 PDZ domain 1 (human); experiment: as above
[23] = biological target: GST-Shank 3 PDZ domain 1 (human); experiment: as above
[24] = biological target: GST-Syntrophin gamma 1 PDZ domain 1 (human); experiment: as above
[25] = biological target: GST-TIAM 2 PDZ domain 1 (human); experiment: as above
[26] = biological target: GST-X-11 beta PDZ domain 1 (human); experiment: as above
[27] = biological target: GST-ZO-1 PDZ domain 1 (human); experiment: as above
[28] = biological target: GST-ZO-2 PDZ domain 1 (human); experiment: as above

WTGRCMSCCRSSRTRRETQL (not fully specified; cysteine pairing not given here) [HPV16 E6 C-terminal PDZ ligand peptide (20 mer, biotinylated), P03126 139-158]
EC50 [1]: 1200 nM
Ave OD [2]: 0.444 A450 nm
OD S/N (ratio to GST only well) [2]: 1.8
Ave OD [3]: 0.461 A450 nm
OD S/N (ratio to GST only well) [3]: 3.14
Ave OD [4]: 0.36 A450 nm
OD S/N (ratio to GST only well) [4]: 1.15
Ave OD [5]: 0.432 A450 nm
OD S/N (ratio to GST only well) [5]: 2.05
Ave OD [6]: 0.36 A450 nm and 0.342 A450 nm
OD S/N (ratio to GST only well) [6]: 1.82 and 1.3
Ave OD [7]: 0.35 A450 nm
OD S/N (ratio to GST only well) [7]: 1.12
Ave OD [8]: 0.388 A450 nm
OD S/N (ratio to GST only well) [8]: 1.58
Ave OD [9]: 0.38 A450 nm
OD S/N (ratio to GST only well) [9]: 2.34
Ave OD [10]: 0.343 A450 nm
OD S/N (ratio to GST only well) [10]: 2.34
Ave OD [11]: 0.44 A450 nm
OD S/N (ratio to GST only well) [11]: 3.96
Ave OD [12]: 0.403 A450 nm
OD S/N (ratio to GST only well) [12]: 2.07
Ave OD [13]: 0.346 A450 nm
OD S/N (ratio to GST only well) [13]: 1.65
Ave OD [14]: 0.449 A450 nm
OD S/N (ratio to GST only well) [14]: 1.6
Ave OD [15]: 0.435 A450 nm and 0.411 A450 nm
OD S/N (ratio to GST only well) [15]: 1.56 and 1.75
Ave OD [16]: 0.425 A450 nm
OD S/N (ratio to GST only well) [16]: 2.2
Ave OD [17]: 0.352 A450 nm
OD S/N (ratio to GST only well) [17]: 3.17
Ave OD [18]: 0.445 A450 nm
OD S/N (ratio to GST only well) [18]: 2.07
Ave OD [19]: 0.429 A450 nm
OD S/N (ratio to GST only well) [19]: 3.96
Ave OD [20]: 0.398 A450 nm
OD S/N (ratio to GST only well) [20]: 1.63
Ave OD [21]: 0.343 A450 nm
OD S/N (ratio to GST only well) [21]: 1.55
Ave OD [22]: 0.385 A450 nm
OD S/N (ratio to GST only well) [22]: 1.71
Ave OD [23]: 0.396 A450 nm
OD S/N (ratio to GST only well) [23]: 2.61
Ave OD [24]: 0.358 A450 nm
OD S/N (ratio to GST only well) [24]: 2
Ave OD [25]: 0.356 A450 nm
OD S/N (ratio to GST only well) [25]: 2.05
Ave OD [26]: 0.352 A450 nm
OD S/N (ratio to GST only well) [26]: 2.02
Ave OD [27]: 0.412 A450 nm
OD S/N (ratio to GST only well) [27]: 1.83
Ave OD [28]: 0.342 A450 nm
OD S/N (ratio to GST only well) [28]: 2.11
